Results from article PMC10397247.
Blank lines part the entries; values can stand above or below the binder they belong to.

Experiments:
[1] = biological target: T1, 4H3175-bA; experiment: two-hybrid library CCNG1;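 also: natural log of median RNA to DNA barcode read ratio; higher means stronger binding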
T1 chain: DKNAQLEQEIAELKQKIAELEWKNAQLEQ

[2] = biological target: T2, 4H3162-bA; experiment: two-hybrid library CCNG1;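 also: natural log of median RNA to DNA barcode read ratio; higher means stronger binding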
T2 chain: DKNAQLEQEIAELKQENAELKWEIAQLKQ

[3] = biological target: T3, 4H3628-bA; experiment: two-hybrid library CCNG1;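 also: natural log of median RNA to DNA barcode read ratio; higher means stronger binding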
T3 chain: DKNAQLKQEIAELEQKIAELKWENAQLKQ

[4] = biological target: T4, 4H3298-bA; experiment: two-hybrid library CCNG1;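 also: natural log of median RNA to DNA barcode read ratio; higher means stronger binding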
T4 chain: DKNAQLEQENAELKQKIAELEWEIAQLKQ

[5] = biological target: T5, 4H3817-bA; experiment: two-hybrid library CCNG1;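 also: natural log of median RNA to DNA barcode read ratio; higher means stronger binding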
T5 chain: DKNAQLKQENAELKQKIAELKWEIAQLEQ

[6] = biological target: T6, 4H3462-bA; experiment: two-hybrid library CCNG1;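 also: natural log of median RNA to DNA barcode read ratio; higher means stronger binding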
T6 chain: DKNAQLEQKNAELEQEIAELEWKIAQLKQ

[7] = biological target: T7, 4H850-bA; experiment: two-hybrid library CCNG1
T7 chain: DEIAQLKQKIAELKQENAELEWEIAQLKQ

[8] = biological target: T8, 4H3613-bA; experiment: two-hybrid library CCNG1
T8 chain: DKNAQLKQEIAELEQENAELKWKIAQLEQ

[9] = biological target: T9, 4H1373-bA; experiment: two-hybrid library CCNG1
T9 chain: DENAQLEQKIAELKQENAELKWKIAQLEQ

[10] = biological target: T10, 4H1899-bA; experiment: two-hybrid library CCNG1
T10 chain: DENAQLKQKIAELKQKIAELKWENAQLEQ

[11] = biological target: T11, 4H1449-bA; experiment: two-hybrid library CCNG1
T11 chain: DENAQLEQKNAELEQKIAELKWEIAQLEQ

[12] = biological target: T12, 4H1985-bA; experiment: two-hybrid library CCNG1
T12 chain: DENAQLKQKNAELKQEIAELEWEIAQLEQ

[13] = biological target: T13, 4H3638-bA; experiment: two-hybrid library CCNG1
T13 chain: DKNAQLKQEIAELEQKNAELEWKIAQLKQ

[14] = biological target: T14, 4H3926-bA; experiment: two-hybrid library CCNG1
T14 chain: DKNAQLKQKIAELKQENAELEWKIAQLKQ

[15] = biological target: T15, 4H591-bA; experiment: two-hybrid library CCNG1
T15 chain: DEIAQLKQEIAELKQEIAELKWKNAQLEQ

[16] = biological target: T16, 4H1348-bA; experiment: two-hybrid library CCNG1
T16 chain: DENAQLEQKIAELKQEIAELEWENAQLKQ

[17] = biological target: T17, 4H3277-bA; experiment: two-hybrid library CCNG1
T17 chain: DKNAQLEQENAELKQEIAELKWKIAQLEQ

[18] = biological target: T18, 4H570-bA; experiment: two-hybrid library CCNG1
T18 chain: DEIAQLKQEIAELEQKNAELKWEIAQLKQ

[19] = biological target: T19, 4H906-bA; experiment: two-hybrid library CCNG1
T19 chain: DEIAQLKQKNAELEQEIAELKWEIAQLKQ

[20] = biological target: T20, 4H1544-bA; experiment: two-hybrid library CCNG1
T20 chain: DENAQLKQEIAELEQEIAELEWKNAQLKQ

[21] = biological target: T21, 4H3497-bA; experiment: two-hybrid library CCNG1
T21 chain: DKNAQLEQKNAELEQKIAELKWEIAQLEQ

[22] = biological target: T22, 4H3858-bA; experiment: two-hybrid library CCNG1
T22 chain: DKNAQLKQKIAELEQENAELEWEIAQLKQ

[23] = biological target: T23, 4H3974-bA; experiment: two-hybrid library CCNG1
T23 chain: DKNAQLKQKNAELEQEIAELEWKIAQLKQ

[24] = biological target: T24, 4H626-bA; experiment: two-hybrid library CCNG1
T24 chain: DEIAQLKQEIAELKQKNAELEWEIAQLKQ

[25] = biological target: T25, 4H1710-bA; experiment: two-hybrid library CCNG1
T25 chain: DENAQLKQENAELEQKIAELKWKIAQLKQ

[26] = biological target: T26, 4H338-bH; experiment: two-hybrid library CCNG1
T26 chain: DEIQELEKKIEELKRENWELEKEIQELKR

[27] = biological target: T27, 4H797-AA; experiment: two-hybrid library CCmax; conditions: mean of both orientations
T27 chain: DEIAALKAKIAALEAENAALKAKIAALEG

[28] = biological target: T28, 4H930-AA; experiment: two-hybrid library CCmax; conditions: mean of both orientations
T28 chain: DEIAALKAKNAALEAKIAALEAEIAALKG

[29] = biological target: T29, O11-AA; experiment: two-hybrid library CCmax; conditions: mean of both orientations
T29 chain: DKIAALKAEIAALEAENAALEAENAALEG

[30] = biological target: T30, 4H3130-AA; experiment: two-hybrid library CCmax; conditions: mean of both orientations
T30 chain: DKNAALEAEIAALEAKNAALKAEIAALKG

[31] = biological target: T31, O6-AA; experiment: two-hybrid library CCmax; conditions: mean of both orientations
T31 chain: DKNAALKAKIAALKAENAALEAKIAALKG

[32] = biological target: T32, 4H3753-AA; experiment: two-hybrid library CCmax; conditions: mean of both orientations
T32 chain: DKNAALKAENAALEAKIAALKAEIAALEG

[33] = biological target: T33, 4H485-AA; experiment: two-hybrid library CCmax; conditions: mean of both orientations
T33 chain: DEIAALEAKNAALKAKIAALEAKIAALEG

[34] = biological target: T34, O14-AA; experiment: two-hybrid library CCmax; conditions: mean of both orientations
T34 chain: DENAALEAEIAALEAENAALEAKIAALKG

[35] = biological target: T35, 4H536-AA; experiment: two-hybrid library CCmax; conditions: mean of both orientations
T35 chain: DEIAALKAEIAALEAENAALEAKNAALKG

[36] = biological target: T36, 4H891-AA; experiment: two-hybrid library CCmax; conditions: mean of both orientations
T36 chain: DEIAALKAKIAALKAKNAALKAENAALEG

[37] = biological target: T37, P9-AA; experiment: two-hybrid library CCmax; conditions: mean of both orientations
T37 chain: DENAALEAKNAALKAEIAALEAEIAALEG

[38] = biological target: T38, 4H850-AA; experiment: two-hybrid library CCmax; conditions: mean of both orientations
T38 chain: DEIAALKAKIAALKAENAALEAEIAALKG

[39] = biological target: T39, O8-AA; experiment: two-hybrid library CCmax; conditions: mean of both orientations
T39 chain: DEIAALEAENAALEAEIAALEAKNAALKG

[40] = biological target: T40, 4H3395-AA; experiment: two-hybrid library CCmax; conditions: mean of both orientations
T40 chain: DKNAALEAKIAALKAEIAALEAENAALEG

[41] = biological target: T41, O7-AA; experiment: two-hybrid library CCmax; conditions: mean of both orientations
T41 chain: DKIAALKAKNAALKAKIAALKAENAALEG

[42] = biological target: T42, 4H710-AA; experiment: two-hybrid library CCmax; conditions: mean of both orientations
T42 chain: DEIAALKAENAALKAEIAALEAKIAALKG

[43] = biological target: T43, 4H3165-AA; experiment: two-hybrid library CCmax; conditions: mean of both orientations
T43 chain: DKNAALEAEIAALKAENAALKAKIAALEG

[44] = biological target: T44, 4H3590-AA; experiment: two-hybrid library CCmax; conditions: mean of both orientations
T44 chain: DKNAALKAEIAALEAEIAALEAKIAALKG

[45] = biological target: T45, 4H3381-AA; experiment: two-hybrid library CCmax; conditions: mean of both orientations
T45 chain: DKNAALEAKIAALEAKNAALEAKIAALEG

[46] = biological target: T46, 4H384-AA; experiment: two-hybrid library CCmax; conditions: mean of both orientations
T46 chain: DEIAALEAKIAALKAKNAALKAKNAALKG

[47] = biological target: T47, P10-AA; experiment: two-hybrid library CCmax; conditions: mean of both orientations
T47 chain: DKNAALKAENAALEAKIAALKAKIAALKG

[48] = biological target: T48, O5-AA; experiment: two-hybrid library CCmax; conditions: mean of both orientations
T48 chain: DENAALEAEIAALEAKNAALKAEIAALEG

[49] = biological target: T49, 4H745-AA; experiment: two-hybrid library CCmax; conditions: mean of both orientations
T49 chain: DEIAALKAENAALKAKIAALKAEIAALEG

[50] = biological target: T50, 4H629-AA; experiment: two-hybrid library CCmax; conditions: mean of both orientations
T50 chain: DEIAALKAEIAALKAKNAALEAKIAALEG

[51] = biological target: T51, 4H94-AA; experiment: two-hybrid library CCmax; conditions: mean of both orientations
T51 chain: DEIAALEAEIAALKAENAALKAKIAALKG

[52] = biological target: T52, 4H570-AA; experiment: two-hybrid library CCmax; conditions: mean of both orientations
T52 chain: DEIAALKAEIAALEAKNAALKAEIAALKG

[53] = biological target: T53, 4H3410-AA; experiment: two-hybrid library CCmax; conditions: mean of both orientations
T53 chain: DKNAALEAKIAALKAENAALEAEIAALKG

[54] = biological target: T54, 4H3016-AA; experiment: two-hybrid library CCmax
T54 chain: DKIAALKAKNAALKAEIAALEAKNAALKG

[55] = biological target: T55, O2-AA; experiment: two-hybrid library CCmax; conditions: mean of both orientations
T55 chain: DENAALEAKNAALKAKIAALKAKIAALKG

[56] = biological target: T56, O3-AA; experiment: two-hybrid library CCmax; conditions: mean of both orientations
T56 chain: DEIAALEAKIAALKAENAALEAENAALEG

[57] = biological target: T57, O13-AA; experiment: two-hybrid library CCmax; conditions: mean of both orientations
T57 chain: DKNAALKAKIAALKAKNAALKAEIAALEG

[58] = biological target: T58, 4H3865-AA; experiment: two-hybrid library CCmax; conditions: mean of both orientations
T58 chain: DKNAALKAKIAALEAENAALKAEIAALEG

[59] = biological target: T59, 4H3120-AA; experiment: two-hybrid library CCmax; conditions: mean of both orientations
T59 chain: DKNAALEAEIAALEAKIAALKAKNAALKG

[60] = biological target: T60, 4H310-AA; experiment: two-hybrid library CCmax; conditions: mean of both orientations
T60 chain: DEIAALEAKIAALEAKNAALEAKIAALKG

[61] = biological target: T61, O4-AA; experiment: two-hybrid library CCmax; conditions: mean of both orientations
T61 chain: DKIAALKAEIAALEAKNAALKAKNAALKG

[62] = biological target: T62, 4H458-AA; experiment: two-hybrid library CCmax; conditions: mean of both orientations
T62 chain: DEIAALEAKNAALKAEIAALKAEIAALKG

[63] = biological target: T63, O1-AA; experiment: two-hybrid library CCmax; conditions: mean of both orientations
T63 chain: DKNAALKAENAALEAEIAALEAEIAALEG

[64] = biological target: T64, 4H909-AA; experiment: two-hybrid library CCmax; conditions: mean of both orientations
T64 chain: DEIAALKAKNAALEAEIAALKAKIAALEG

[65] = biological target: T65, 4H3697-AA; experiment: two-hybrid library CCmax; conditions: mean of both orientations
T65 chain: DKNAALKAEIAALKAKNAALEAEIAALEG

interaction score [1]: 0.0318
interaction score [2]: -0.332
interaction score [3]: 1.84
interaction score [4]: -0.624
interaction score [5]: -0.318
interaction score [6]: 0.657
interaction score [7]: -0.292
interaction score [8]: -1.05
interaction score [9]: -0.7
interaction score [10]: 1.63
interaction score [11]: -0.151
interaction score [12]: -0.366
interaction score [13]: -0.0281
interaction score [14]: -0.392
interaction score [15]: -1.02
interaction score [16]: 0.78
interaction score [17]: -0.24
interaction score [18]: -0.301
interaction score [19]: -0.721
interaction score [20]: -0.0997
interaction score [21]: -0.616
interaction score [22]: -0.895
interaction score [23]: 0.469
interaction score [24]: -0.434
interaction score [25]: 0.798
interaction score [26]: 1.22
Binder: DENAQLEQKIAELKQEIAELEWENAQLKQ [4H1348-bA]

interaction score [27]: -1.65
interaction score [28]: -1.32
interaction score [29]: -1.4
interaction score [30]: -0.405
interaction score [31]: 0.964
interaction score [32]: 0.667
interaction score [33]: -0.786
interaction score [34]: 2
interaction score [35]: -0.944
interaction score [36]: -1.63
interaction score [37]: -0.637
interaction score [38]: -0.436
interaction score [39]: 1.56
interaction score [40]: -1.1
interaction score [41]: 0.0246
interaction score [42]: -1.35
interaction score [43]: -1.17
interaction score [44]: 0.669
interaction score [45]: -1.11
interaction score [46]: -1.89
interaction score [47]: -0.503
interaction score [48]: -0.896
interaction score [49]: 0.997
interaction score [50]: -1.28
interaction score [51]: -0.745
interaction score [52]: -1.4
interaction score [53]: 0.759
interaction score [54]: -1.56
interaction score [55]: -1.29
interaction score [56]: -0.74
interaction score [57]: -1.87
interaction score [58]: -1.38
interaction score [59]: -1.33
interaction score [60]: -0.901
interaction score [61]: -1.64
interaction score [62]: -1.13
interaction score [63]: -0.276
interaction score [64]: -0.857
interaction score [65]: -0.432
Binder: DKIAALKAKNAALKAEIAALEAKNAALKG [4H3016-AA]
